Laboratory results published in US8680046B2, “Inhibitors of viral integrase and methods of use” (Integratech Proteomics, LLC, priority 2009, dated 2014).
Ends that are not written are not given here. Peptide text beside a SMILES is read from it.

Legend:
peptide solubility = assay type: physicochemical; conditions: effect of C-terminal tail
HIV IN [1] = target: T1, HIV IN (Human immunodeficiency virus type 1 group M subtype B, UniProt P12497); assay type: biochemical; conditions: summary statement
HIV IN [2] = target: T1, HIV IN; assay: yeast two-hybrid screen, growth on -ade plates; assay type: cell-based; design: HIV IN was amplified from the pNL4-3 based provirus (R9) as template and cloned into two expression vectors; expressed in transfected cells; host or cells: Saccharomyces cerevisiae AH109; conditions: peptide fused to VP16 activation domain, GALDB-IN bait, FIG. 1
Text: A yeast-based screening platform for identifying inhibitors of IN was constructed. In this platform, HIV IN was amplified from the pNL4-3 based provirus (R9) as template and cloned into two expression vectors resulting in a fusion of IN C-terminus to the GAL4 DNA binding domain (GALDB) and the GAL4 activation domain (GALAD) respectively. By western blot analysis, GALAD-IN was detected (not shown); however, GALDB-IN was barely detectable.
Binders were confirmed by plasmid linkage analysis (FIG. 1).

HPVE7 = HPVE7 (Human papillomavirus type 16, UniProt P03129); conditions: two-hybrid
Text: (§1) To identify IN-binding peptides, yeast producing HIV integrase was mated with yeast harboring a random peptide library (15 amino acids in length; 27 million diverse) fused to the VP16 activation domain. […] The peptide was cloned as a C-terminal fusion with VP16-Zsgreen and tested for interaction with the GALDB or GALDB-IN fusion in AH109 Mat a, trp1-901, leu2-3, 112, ura3-52, his3-200, gal4 Δ, gal 80Δ, LYS2::GAL1UAS-GAL1TATA-HIS3, GAL2UAS-GAL2TATA-ADE2, URA3:MEL1UAS-MEL1TATA-lacZ. Growth on -ade plates indicated activation of a selectable reporter.

HPVE6 = HPVE6 (Human papillomavirus type 16, UniProt P03126); conditions: two-hybrid
Text: as §1

Chain of HPVE6 (P03126 whole entry): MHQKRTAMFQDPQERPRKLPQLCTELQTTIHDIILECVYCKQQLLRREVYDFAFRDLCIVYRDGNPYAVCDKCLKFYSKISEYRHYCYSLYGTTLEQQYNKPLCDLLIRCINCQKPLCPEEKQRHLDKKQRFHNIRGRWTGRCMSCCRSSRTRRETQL
Chain of HPVE7 (P03129 whole entry, the tested form may be a part): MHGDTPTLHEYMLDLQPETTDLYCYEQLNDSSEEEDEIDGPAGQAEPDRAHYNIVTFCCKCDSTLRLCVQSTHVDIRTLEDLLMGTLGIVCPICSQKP

Compound	peptide solubility (peptide solubility)	inhibition of integration of viral DNA into target DNA (HIV IN [1])	interaction with HIV IN by two-hybrid (HIV IN [2])	interaction with false bait HPVE7 (HPVE7)	interaction with false bait HPVE6 (HPVE6)
CC[C@H](C)[C@H](NC(=O)[C@H](CC(C)C)NC(=O)[C@@H](NC(=O)[C@@H](NC(=O)[C@H](CCC(=O)O)NC(=O)[C@H](Cc1ccc(O)cc1)NC(=O)[C@@H](N)CC(C)C)[C@@H](C)O)[C@@H](C)CC)C(=O)N[C@@H](CC(C)C)C(=O)N[C@@H](CC(C)C)C(=O)N[C@@H](Cc1ccccc1)C(=O)N[C@@H](CC(C)C)C(=O)N[C@@H](CC(=O)O)C(=O)N[C@H](C(=O)N[C@@H](CC(=O)O)C(=O)N[C@H](C(=O)NCC(=O)N[C@@H](CCCCN)C(=O)N[C@@H](CCCCN)C(=O)N[C@@H](CCCNC(=N)N)C(=O)O)[C@@H](C)O)C(C)C [B05751] (H-LYETILILLFLDVDTGKKR-OH; N-terminus and C-terminus assumed)	increased peptide solubility	–	–	–	–
CC[C@H](C)[C@H](NC(=O)[C@H](CC(C)C)NC(=O)[C@@H](NC(=O)[C@@H](NC(=O)[C@H](CCC(=O)O)NC(=O)[C@H](Cc1ccc(O)cc1)NC(=O)[C@@H](N)CC(C)C)[C@@H](C)O)[C@@H](C)CC)C(=O)N[C@@H](CC(C)C)C(=O)N[C@@H](CC(C)C)C(=O)N[C@@H](Cc1ccccc1)C(=O)N[C@@H](CC(C)C)C(=O)N[C@@H](CC(=O)O)C(=O)N[C@H](C(=O)N[C@@H](CC(=O)O)C(=O)N[C@H](C(=O)NCC(=O)N[C@@H](CC(=O)O)C(=O)N[C@@H](CCC(=O)O)C(=O)N[C@@H](CC(=O)O)C(=O)O)[C@@H](C)O)C(C)C [B05759] (H-LYETILILLFLDVDTGDED-OH; N-terminus and C-terminus assumed)	increased peptide solubility	–	–	–	–
LYETILILLFLDVDTG [SEQ ID NO:1]	–	inhibit the integration of viral DNA into the target DNA	interacted with the viral target	not false baits	not false baits
